Measured values published in patent EP0621339B1 (TAKARA SHUZO CO. LTD., dated 2001).

Key:
Experiment in all cases: cell-based or functional assay
[1] = target: HA molecule (haemagglutinin) of A/Suita/1/90 (H3N2) (influenza A virus, H3N2 subtype, strain A/Suita/1/90)
[2] = target: HA molecule (haemagglutinin) of A/Izumi/5/65 (H2N2) (influenza A virus, H2N2 subtype, strain A/Izumi/5/65)
[3] = target: HA molecule (haemagglutinin) of A/Yamagata/120/86 (H1N1) (influenza A virus, H1N1 subtype, strain A/Yamagata/120/86)
[4] = target: HA molecule (haemagglutinin) of A/Kitakyushu/159/93 (H3N2) (influenza A virus, H3N2 subtype, strain A/Kitakyushu/159/93)
[5] = target: HA molecule (haemagglutinin) of influenza B virus B/Nagasaki/1/87 (influenza B virus, strain B/Nagasaki/1/87)
[6] = target: HA molecule (haemagglutinin) of A/Kaizuka/2/65 (H2N2) (influenza A virus, H2N2 subtype, strain A/Kaizuka/2/65)
[7] = target: HA molecule (haemagglutinin) of A1/FM/1/47 (H1N1) (influenza A virus, H1N1 subtype, strain A1/FM/1/47)
[8] = target: HA molecule (haemagglutinin) of A/Kumamoto/1/65 (H2N2) (influenza A virus, H2N2 subtype, strain A/Kumamoto/1/65)
[9] = target: HA molecule (haemagglutinin) of A/Osaka/930/88 (H1N1) (influenza A virus, H1N1 subtype, strain A/Osaka/930/88)
[10] = target: HA molecule (haemagglutinin) of A/Adachi/2/57 (H2N2) (influenza A virus, H2N2 subtype, strain A/Adachi/2/57)
[11] = target: HA molecule (haemagglutinin) of A/Fukuoka/C29/85 (H3N2) (influenza A virus, H3N2 subtype, strain A/Fukuoka/C29/85)
[12] = target: HA molecule (haemagglutinin) of A/Sichuan/2/87 (H3N2) (influenza A virus, H3N2 subtype, strain A/Sichuan/2/87)
[13] = target: HA molecule (haemagglutinin) of A/Bangkok/10/83 (H1N1) (influenza A virus, H1N1 subtype, strain A/Bangkok/10/83)
[14] = target: HA molecule (haemagglutinin) of A2/Aichi/2/68 (H3N2) (influenza A virus, H3N2 subtype, strain A2/Aichi/2/68)
[15] = target: HA molecule (haemagglutinin) of A/Ibaraki/1/90 (H3N2) (influenza A virus, H3N2 subtype, strain A/Ibaraki/1/90)
[16] = target: HA molecule (haemagglutinin) of A/PR/8/34 (H1N1) (influenza A virus, H1N1 subtype, strain …, UniProt P03452 18-565)
HA molecule (haemagglutinin) of A/PR/8/34 (H1N1), sequence (P03452 18-565): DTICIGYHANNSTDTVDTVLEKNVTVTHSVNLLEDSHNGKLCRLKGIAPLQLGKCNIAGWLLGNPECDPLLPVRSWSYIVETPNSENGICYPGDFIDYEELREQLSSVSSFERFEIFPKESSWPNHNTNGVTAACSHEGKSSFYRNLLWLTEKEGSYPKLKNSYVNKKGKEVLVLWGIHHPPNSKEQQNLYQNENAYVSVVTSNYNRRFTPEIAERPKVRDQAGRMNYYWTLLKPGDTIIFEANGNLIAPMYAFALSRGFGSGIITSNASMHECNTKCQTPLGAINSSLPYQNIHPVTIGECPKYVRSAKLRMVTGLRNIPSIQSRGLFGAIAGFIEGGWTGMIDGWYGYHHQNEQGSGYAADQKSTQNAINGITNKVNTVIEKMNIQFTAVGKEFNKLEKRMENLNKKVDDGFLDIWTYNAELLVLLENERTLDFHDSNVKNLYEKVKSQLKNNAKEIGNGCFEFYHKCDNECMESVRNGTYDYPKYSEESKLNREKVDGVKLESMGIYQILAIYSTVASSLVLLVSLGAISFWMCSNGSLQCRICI

## monoclonal antibody C179
[1]
  HI (hemagglutination inhibition titer) (fold dilution of the ascites fluid): < 32
[2]
  HI (hemagglutination inhibition titer) (fold dilution of the ascites fluid): < 32
[3]
  HI (hemagglutination inhibition titer) (fold dilution of the ascites fluid): < 32
[4]
  HI (hemagglutination inhibition titer) (fold dilution of the ascites fluid): < 32
[5]
  HI (hemagglutination inhibition titer) (fold dilution of the ascites fluid): < 32
[6]
  HI (hemagglutination inhibition titer) (fold dilution of the ascites fluid): < 32
[7]
  HI (hemagglutination inhibition titer) (fold dilution of the ascites fluid): < 32
[8]
  HI (hemagglutination inhibition titer) (fold dilution of the ascites fluid): < 32
[9]
  HI (hemagglutination inhibition titer) (fold dilution of the ascites fluid): < 32
[10]
  HI (hemagglutination inhibition titer) (fold dilution of the ascites fluid): < 32
[11]
  HI (hemagglutination inhibition titer) (fold dilution of the ascites fluid): < 32
[12]
  HI (hemagglutination inhibition titer) (fold dilution of the ascites fluid): < 32
[13]
  HI (hemagglutination inhibition titer) (fold dilution of the ascites fluid): < 32
[14]
  HI (hemagglutination inhibition titer) (fold dilution of the ascites fluid): < 32
[15]
  HI (hemagglutination inhibition titer) (fold dilution of the ascites fluid): < 32

B1: monoclonal antibody C179 (antibody)
chain 1: EVKLVESGGGLVQPGGSLRLSCGTSGFTLTDDYMTWVRQPPGKALEWLGFIRDRANGYTTEYSASVKGRFTISRDNSQSIVYLQMNTLRVEDSATYYCARPKGYFPYAMDYWGQGT
chain 2: DIQMTQSPASQSASLGESVTITCLASQTIGTWLAWYQQKPGKSPQLLIYAATSLADGVPSRFSGSGSGTKFSFKISSLQAEDFVSYYCQQLYSTPW
[16]
  HI (hemagglutination inhibition titer): < 32 fold dilution of the ascites fluid
